Article PMC2196230 (The Journal of Experimental Medicine, 1997)

Target: the molecule itself
Assay: SEC

B1: recombinant soluble signaling lymphocytic activation molecule (sSLAM) with a Flag sequence at the carboxy terminus (natural protein, human, UniProt Q13291-3 21-305, looked up)
chain: ASYGTGGRMMNCPKILRQLGSKVLLPLTYERINKSMNKSIHIVVTMAKSLENSVENKIVSLDPSEAGPPRYLGDRYKFYLENLTLGIRESRKEDEGWYLMTLEKNVSVQRFCLQLRLYEQVSTPEIKVLNKTQENGTCTLILGCTVEKGDHVAYSWSEKAGTHPLNPANSSHLLSLTLGPQHADNIYICTVSNPISNNSQTFSPWPGCRTDPSGKTNHYQTTVEKKSLTIYAQVQKPGPLQKKLDSFPAQDPCTTIYVAATEPVPESVQETNSITVYASVTLPES
stoichiometry N: 2
